From patent US20090118185A1 (UNIVERSITY OF ROCHESTER, published 2009) come the findings set out here.

“And” between values parts separate entries of the source, which are not always exact repeats. Equal entries are not always repeated.

Data set [1] deals with T1, 336(P1′-P3′)562 factor VIIIa mutant.
T1 chain 1: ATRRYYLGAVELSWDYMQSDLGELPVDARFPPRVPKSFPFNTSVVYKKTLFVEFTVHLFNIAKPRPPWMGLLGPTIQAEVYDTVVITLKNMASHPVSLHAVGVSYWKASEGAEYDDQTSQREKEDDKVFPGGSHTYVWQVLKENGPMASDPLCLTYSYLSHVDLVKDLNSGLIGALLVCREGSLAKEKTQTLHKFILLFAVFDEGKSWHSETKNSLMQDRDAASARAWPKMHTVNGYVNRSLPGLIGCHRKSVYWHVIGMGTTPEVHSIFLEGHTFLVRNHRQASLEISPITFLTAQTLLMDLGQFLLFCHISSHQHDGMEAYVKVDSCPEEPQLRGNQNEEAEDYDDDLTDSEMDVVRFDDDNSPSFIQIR
T1 chain 2: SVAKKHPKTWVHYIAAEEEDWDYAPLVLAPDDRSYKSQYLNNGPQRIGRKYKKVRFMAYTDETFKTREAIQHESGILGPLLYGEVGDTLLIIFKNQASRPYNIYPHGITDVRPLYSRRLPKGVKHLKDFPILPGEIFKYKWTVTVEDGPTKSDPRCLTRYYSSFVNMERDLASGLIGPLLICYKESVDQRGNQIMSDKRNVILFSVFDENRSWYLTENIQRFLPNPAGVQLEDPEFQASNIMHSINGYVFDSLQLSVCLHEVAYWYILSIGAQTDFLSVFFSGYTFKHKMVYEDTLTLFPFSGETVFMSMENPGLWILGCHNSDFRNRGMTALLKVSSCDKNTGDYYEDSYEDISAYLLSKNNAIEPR
T1 chain 3: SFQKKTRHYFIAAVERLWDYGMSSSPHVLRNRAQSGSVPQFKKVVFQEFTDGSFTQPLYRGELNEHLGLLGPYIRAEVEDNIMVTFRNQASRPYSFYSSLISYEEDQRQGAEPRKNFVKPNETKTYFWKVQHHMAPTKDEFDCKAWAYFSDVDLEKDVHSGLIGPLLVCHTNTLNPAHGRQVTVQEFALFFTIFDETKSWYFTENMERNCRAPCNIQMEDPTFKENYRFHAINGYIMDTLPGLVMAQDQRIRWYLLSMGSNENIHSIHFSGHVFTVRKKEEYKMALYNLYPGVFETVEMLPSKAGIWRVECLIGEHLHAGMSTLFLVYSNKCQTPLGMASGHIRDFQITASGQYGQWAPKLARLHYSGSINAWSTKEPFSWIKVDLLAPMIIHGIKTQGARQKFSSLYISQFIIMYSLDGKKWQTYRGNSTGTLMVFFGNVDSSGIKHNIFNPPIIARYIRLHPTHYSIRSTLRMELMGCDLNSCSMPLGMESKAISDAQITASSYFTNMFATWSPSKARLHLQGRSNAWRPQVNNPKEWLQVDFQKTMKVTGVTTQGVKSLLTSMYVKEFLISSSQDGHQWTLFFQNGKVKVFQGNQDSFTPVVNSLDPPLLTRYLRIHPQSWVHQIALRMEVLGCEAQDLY

Data set [2] has as its target T2, 562(P4-P3′)336 factor VIII mutant (procofactor).
T2 chain 1: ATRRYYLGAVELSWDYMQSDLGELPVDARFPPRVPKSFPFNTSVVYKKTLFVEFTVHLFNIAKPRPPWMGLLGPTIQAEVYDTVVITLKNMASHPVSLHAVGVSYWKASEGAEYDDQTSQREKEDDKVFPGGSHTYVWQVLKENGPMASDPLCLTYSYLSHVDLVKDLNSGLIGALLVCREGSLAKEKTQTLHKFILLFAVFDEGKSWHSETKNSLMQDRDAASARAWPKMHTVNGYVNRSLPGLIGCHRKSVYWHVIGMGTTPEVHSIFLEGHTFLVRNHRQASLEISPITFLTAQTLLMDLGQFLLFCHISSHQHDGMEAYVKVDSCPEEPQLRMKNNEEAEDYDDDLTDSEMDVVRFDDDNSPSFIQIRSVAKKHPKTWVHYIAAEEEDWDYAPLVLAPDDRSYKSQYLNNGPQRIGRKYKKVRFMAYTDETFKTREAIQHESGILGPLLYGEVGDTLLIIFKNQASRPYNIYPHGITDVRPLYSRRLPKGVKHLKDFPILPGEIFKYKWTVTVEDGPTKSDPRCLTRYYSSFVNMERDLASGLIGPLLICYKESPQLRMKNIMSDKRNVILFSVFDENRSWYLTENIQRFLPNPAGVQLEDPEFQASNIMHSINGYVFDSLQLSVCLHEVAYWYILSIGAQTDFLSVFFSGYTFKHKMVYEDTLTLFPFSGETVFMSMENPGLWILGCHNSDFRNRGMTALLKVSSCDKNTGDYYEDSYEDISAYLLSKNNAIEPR
T2 chain 2: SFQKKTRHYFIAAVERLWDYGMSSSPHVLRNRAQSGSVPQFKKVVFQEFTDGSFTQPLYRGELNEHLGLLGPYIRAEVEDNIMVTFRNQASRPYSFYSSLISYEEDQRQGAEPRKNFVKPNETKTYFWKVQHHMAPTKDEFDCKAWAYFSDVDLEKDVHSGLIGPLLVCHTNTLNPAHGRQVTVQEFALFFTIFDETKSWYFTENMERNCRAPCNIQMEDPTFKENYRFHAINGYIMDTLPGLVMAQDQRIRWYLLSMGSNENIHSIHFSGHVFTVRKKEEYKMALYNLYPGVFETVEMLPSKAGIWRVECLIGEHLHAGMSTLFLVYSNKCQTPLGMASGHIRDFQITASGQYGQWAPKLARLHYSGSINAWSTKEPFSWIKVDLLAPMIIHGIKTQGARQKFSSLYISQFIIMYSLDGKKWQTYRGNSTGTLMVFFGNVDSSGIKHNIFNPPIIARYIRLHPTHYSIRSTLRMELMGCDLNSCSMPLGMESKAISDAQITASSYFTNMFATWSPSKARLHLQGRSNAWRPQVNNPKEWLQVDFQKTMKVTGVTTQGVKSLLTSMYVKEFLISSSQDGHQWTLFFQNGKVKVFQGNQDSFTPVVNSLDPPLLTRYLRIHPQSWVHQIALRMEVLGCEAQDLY

Data set [3] addresses T3, 562(P4-P3′)336 factor VIIIa mutant.
T3 chain 1: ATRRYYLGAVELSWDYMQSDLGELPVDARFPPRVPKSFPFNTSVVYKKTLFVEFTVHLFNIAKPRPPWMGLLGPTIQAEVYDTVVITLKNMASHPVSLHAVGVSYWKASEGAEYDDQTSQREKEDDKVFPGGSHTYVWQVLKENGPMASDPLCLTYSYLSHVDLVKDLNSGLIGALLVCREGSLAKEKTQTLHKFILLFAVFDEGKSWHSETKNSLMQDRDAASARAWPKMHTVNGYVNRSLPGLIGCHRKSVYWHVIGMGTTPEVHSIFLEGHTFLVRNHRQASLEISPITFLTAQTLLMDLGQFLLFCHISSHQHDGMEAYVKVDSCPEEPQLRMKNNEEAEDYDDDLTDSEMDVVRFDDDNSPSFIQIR
T3 chain 2: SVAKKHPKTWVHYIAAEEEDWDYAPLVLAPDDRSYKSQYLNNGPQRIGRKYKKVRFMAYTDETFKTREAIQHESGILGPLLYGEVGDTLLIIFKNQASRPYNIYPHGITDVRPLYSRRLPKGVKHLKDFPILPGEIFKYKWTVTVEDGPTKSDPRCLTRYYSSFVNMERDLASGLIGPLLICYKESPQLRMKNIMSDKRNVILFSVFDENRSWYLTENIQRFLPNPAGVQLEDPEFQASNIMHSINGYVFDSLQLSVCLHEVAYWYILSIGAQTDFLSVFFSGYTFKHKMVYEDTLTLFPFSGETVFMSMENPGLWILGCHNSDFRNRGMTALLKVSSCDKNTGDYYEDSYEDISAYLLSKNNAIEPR
T3 chain 3: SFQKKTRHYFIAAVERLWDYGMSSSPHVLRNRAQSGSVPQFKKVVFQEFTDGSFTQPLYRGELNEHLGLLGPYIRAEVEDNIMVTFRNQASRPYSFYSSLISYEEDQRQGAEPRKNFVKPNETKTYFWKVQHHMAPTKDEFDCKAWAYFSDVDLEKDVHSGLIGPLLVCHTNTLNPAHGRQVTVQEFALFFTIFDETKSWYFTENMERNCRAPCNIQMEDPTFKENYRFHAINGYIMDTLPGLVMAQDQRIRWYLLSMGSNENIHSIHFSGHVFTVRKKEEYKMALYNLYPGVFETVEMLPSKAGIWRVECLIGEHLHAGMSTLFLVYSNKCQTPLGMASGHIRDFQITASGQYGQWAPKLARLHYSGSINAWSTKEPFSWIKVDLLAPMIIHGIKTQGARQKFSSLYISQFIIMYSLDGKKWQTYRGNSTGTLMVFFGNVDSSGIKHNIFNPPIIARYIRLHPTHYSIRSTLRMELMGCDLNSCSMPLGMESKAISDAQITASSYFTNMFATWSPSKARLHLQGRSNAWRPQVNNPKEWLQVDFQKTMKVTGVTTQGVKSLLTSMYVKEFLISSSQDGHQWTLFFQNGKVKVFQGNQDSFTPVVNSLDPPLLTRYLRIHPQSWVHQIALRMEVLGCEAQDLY

In data set [4] the target is T4, WT factor VIIIa (B-domainless recombinant human factor VIII activated by thrombin).
T4 chain 1: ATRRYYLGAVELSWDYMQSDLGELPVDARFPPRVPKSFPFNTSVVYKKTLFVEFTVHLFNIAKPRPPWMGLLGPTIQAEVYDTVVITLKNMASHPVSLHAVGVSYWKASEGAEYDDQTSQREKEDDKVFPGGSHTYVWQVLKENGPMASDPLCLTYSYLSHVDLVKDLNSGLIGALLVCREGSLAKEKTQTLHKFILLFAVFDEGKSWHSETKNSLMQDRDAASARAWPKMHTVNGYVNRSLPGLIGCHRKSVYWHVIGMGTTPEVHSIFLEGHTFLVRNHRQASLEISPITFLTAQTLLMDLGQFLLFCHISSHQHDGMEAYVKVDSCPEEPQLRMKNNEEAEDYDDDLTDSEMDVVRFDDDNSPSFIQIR
T4 chain 2: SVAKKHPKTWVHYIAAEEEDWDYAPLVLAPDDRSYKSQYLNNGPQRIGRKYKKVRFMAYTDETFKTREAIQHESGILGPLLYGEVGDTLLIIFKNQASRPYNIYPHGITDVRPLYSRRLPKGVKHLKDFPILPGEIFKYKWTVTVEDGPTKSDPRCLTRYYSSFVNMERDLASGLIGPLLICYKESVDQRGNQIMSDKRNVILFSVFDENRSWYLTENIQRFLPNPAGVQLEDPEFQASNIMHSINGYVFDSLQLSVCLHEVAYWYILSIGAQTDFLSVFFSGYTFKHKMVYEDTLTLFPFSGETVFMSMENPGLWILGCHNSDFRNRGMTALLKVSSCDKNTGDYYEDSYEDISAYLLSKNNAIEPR
T4 chain 3: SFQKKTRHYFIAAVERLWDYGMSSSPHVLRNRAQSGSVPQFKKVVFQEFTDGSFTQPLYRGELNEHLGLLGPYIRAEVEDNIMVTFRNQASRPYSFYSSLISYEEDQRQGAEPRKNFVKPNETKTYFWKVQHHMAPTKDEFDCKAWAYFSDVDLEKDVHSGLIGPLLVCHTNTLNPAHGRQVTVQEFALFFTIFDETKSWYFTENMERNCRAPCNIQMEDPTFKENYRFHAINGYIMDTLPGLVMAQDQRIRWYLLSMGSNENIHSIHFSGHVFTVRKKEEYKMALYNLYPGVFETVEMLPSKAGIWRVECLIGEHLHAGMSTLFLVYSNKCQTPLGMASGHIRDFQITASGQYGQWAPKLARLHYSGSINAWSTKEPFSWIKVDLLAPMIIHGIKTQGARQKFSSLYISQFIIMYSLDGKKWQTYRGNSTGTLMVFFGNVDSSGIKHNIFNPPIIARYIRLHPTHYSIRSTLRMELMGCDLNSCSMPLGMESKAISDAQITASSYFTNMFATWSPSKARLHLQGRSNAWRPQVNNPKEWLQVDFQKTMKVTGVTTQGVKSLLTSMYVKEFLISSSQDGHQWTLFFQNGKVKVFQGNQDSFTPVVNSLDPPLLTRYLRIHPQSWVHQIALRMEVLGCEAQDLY

B1: human activated protein C (protein)
chain 1: ANSFLEELRHSSLERECIEEICDFEEAKEIFQNVDDTLAFWSKHVDGDQCLVLPLEHPCASLCCGHGTCIDGIGSFSCDCRSGWEGRFCQREVSFLNCSLDNGGCTHYCLEEVGWRRCSCAPGYKLGDDLLQCHPAVKFPCGRPWKRMEKKRSHL
chain 2: LIDGKMTRRGDSPWQVVLLDSKKKLACGAVLIHPSWVLTAAHCMDESKKLLVRLGEYDLRRWEKWELDLDIKEVFVHPNYSKSTTDNDIALLHLAQPATLSQTIVPICLPDSGLAERELNQAGQETLVTGWGYHSSREKEAKRNRTFVLNFIKIPVVPHNECSEVMSNMVSENMLCAGILGDRQDACEGDSGGPMVASFHGTWFLVGLVSWGEGCGLLHNYGVYTKVSRYLDWIHGHIRDKEAPQKSWAP
With B1, the A1 Cleavage (nM A1/min/nM APC) (nM A1/min/nM APC) in data set [1] is 1.1; in data set [3] it was 7.3; in data set [4], 8.5 and 9.5. The A2 Cleavage (nM A2/min/nM APC) (nM A2/min/nM APC) in data set [1] was 0.3; in data set [2], 2.7; in data set [3], 1.9; in data set [4], 0.5 and 0.2. In data set [1], the “fold reduction of cleavage rate at the A1 site compared with WT” value was “reduced ˜16 and ˜9-fold, respectively, as compared with the WT protein”. The “fold increase of A2 subunit cleavage rate” value in data set [3] is recorded as “the rate of A2 subunit cleavage for 562(P4-P3′)336 mutant was increased 4 fold”.
